Literature values, collected in PMC7511354.

Target: CYP2C9 (Homo sapiens) (UniProt P11712)
UniProt P11712, sequence (P11712 whole entry): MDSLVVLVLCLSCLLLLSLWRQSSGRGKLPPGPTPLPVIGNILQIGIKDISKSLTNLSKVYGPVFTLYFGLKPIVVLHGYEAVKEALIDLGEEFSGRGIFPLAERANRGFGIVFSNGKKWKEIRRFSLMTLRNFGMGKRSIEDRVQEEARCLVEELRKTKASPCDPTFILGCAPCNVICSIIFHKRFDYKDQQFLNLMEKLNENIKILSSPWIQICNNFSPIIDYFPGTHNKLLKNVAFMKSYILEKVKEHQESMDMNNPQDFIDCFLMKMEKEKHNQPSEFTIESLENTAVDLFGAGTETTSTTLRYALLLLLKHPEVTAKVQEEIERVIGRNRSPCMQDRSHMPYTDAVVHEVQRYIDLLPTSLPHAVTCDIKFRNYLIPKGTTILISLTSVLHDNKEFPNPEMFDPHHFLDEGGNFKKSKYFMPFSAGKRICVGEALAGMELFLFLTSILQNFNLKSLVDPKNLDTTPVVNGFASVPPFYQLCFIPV

- Kd: 0.794 µM
Substance: cytochrome b5 (from UniProt P00167)
